Experiments:
[1] = biological target: T1, ectodomain of dog Nectin-4 (residues 1-332) (dog); assay: SPR; […]; HBS-EP (10 mM HEPES pH 7.4, 150 mM NaCl, 3 mM EDTA, 0.005% Surfactant P20); […]; conditions: both partners purified
T1 construct: also called dNectin-4; PVRL4

[2] = biological target: T2, ectodomain of human Nectin-4 (residues 1-333) (human, UniProt Q96NY8 32-333); assay: as above; conditions: both partners purified
T2 construct: also called hNectin-4; PVRL4
T2 sequence (looked up): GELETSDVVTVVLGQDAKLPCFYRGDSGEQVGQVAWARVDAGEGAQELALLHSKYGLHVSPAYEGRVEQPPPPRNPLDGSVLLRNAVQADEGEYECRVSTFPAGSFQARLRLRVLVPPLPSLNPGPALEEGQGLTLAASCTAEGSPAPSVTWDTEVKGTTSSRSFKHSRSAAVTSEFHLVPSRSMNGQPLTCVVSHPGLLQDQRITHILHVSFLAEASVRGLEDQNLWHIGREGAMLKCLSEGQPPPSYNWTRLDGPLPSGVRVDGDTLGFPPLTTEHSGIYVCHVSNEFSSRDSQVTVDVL

B1: MeV-H (measles virus hemagglutinin), wild-type strain (domain or fragment)
chain: DYDQYCADVAAEELMNALVNSTLLEARATNQFLAVSKGNCSGPTTIRGQFSNMSLSLLDLYLSRGYNVSSIVTMTSQGMYGGTYLVGKPNLSSKGSELSQLSMHRVFEVGVIRNPGLGAPVFHMTNYFEQPVSNDFSNCMVALGELKFAALCHREDSITIPYQGSGKGVSFQLVKLGVWKSPTDMRSWVPLSTDDPVIDRLYLSSHRGVIADNQAKWAVPTTRTDDKLRMETCFQQACKGKNQALCENPEWAPLKDNRIPSYGVLSVNLSLTVELKIKIASGFGPLITHGSGMDLYKTNHNNVYWLTIPPMKNLALGVINTLEWIPRFKVSPNLFTVPIKEAGEDCHAPTYLPAEVDGDVKLSSNLVILPGQDLQYVLATYDTSRVEHAVVYYVYSPSRSFSYFYPFRLPIKGVPIELQVECFTWDKKLWCRHFCVLADSESGGHITHSGMVGMGVSCTVTREDGTNRR
With B1 the Ka [1] was 739000 M⁻¹, the Kd [1] was 1350 nM and the Ka [2] was 1.48e+06 M⁻¹. For the same binder, the Kd [2] was 674 nM.
